Source: the supplement of paper PMC12764529
± gives the half width of the 95% confidence interval.

Columns and labels:
[1] = folding stability dG unfold from chymotrypsin proteolysis; higher = more stable
Method in brief: (§1)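 Only designs with AlphaFold2 dimer inter-PAE above 15 were retained; each was a mini-protein under 80 residues with no cysteine, in a PA-tagged cDNA display construct. After digestion with trypsin and chymotrypsin and sequencing, K50 was inferred by Bayesian fitting of counts, and unfolding free energy was derived per protease or combined against a sequence-predicted unfolded-state K50 and a shared folded-state K50.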

[2] = folding stability dG unfold (combined trypsin and chymotrypsin); higher = more stable
Method in brief: as §1

[3] = folding stability dG unfold from trypsin proteolysis; higher = more stable
Method in brief: as §1

Row | Sequence | folding stability dG unfold [1] | folding stability dG unfold [2] | folding stability dG unfold [3]
1 | SAGGSAGGSSYTVSEDPNSSSTTITDPVTGRTVLRSPSSWTVVDPETGEEKSFPAGTVVTLPESAGGSAGGS [r12_584_JUSTAS] | 1.06 ± 0.056 kcal/mol | 0.724 ± 0.042 kcal/mol | -0.146 ± 0.13 kcal/mol
2 | SKPNLEVKEVEIKMTAEEIKKLLKPNVTKIEKVNGKYYVTVKVNGVLVKIEIKYDKETNEVTVKIYVIKPSA [r9_604_TrROS_Hall] | 3.115 ± 0.03 kcal/mol | 2.88 ± 0.11 kcal/mol | 2.37 ± 0.072 kcal/mol
3 | SAGMTIILVGPNAKEAVEKVAEELRKRDVGPPVTVLVLEPGGKPVLRARVERRPPDPDRFVVTVEPVESAGG [r19_85_TrMRF] | 1.41 ± 0.11 kcal/mol | 1.27 ± 0.098 kcal/mol | 0.689 ± 0.079 kcal/mol
4 | SAGGSAKPKIEIEVEKLEGVKEGDTIEVKIKFPNGFIIKIEAKVKRVDGKLVIEVTKVEVIPKEDLSAGGSA [r15_636_TrROS_Hall] | 3.17 ± 0.2 kcal/mol | 3.16 ± 0.3 kcal/mol | 2.7 ± 0.14 kcal/mol
5 | SAGGMLLVRIRVKLSPEQIKALEEAGFEVVEERDGEVVVRLEVSPEQLEKLKALFPDAEIEVVELPPESAGG [r13_261_TrROS_Hall] | 4.96 ± 0.1 kcal/mol | 5.26 ± 0.29 kcal/mol | 5.44 ± 0.49 kcal/mol
6 | SAGGPGAAPTSTTVTVTIHLPMPPDVSDEEAKALAKERIKEEFPPSYTIESITVDPATNVVTATVKVASAGG [r19_81_JUSTAS] | 2.88 ± 0.1 kcal/mol | 3.11 ± 0.16 kcal/mol | 3.32 ± 0.15 kcal/mol
7 | SAGGSAGGMIREIEVKVSPEFPSVEEVVEELKAKGYEVKRIEEDPETDEVIVYVVKKVPEEEHHSAGGSAGG [r6_604_JUSTAS] | 1.04 ± 0.17 kcal/mol | 1.08 ± 0.12 kcal/mol | 1.05 ± 0.068 kcal/mol
8 | SAGGSEALTKNLPGVKEIKIEVEPTEVALSPELAKLLPNLPGVKFTVPSVKIDIKIEYPGTPDGTLSAGGSA [r2_404_TrMRF] | -0.659 ± 0.37 kcal/mol | -0.053 ± 0.15 kcal/mol | 0.133 ± 0.088 kcal/mol
9 | SAGGSAAPVSRVVELEFVLPPELVAEAVDALRKLPGVKASFELAEVLPDGYVRVRVTIEVPDDVDLSAGGSA [r15_441_TrMRF] | 3.95 ± 0.073 kcal/mol | 3.8 ± 0.073 kcal/mol | 3.46 ± 0.11 kcal/mol
10 | SMVLARIKVRVRDPVTGEELDVEIDLLAPVEVAEEAAEEFRKLFPGLEVEVDLVEVVPLPPVTPEQLAKESA [r9_421_TrMRF] | 2.823 ± 0.017 kcal/mol | 2.48 ± 0.083 kcal/mol | 1.82 ± 0.046 kcal/mol
11 | SAGMTIVVEVPKKDITPEELAKKLEERFGLKVVEIKVEEVEEDKVRVTIRFEETGETLELTAEEIKELLSAG [r5_550_TrROS_Hall] | 3.81 ± 0.17 kcal/mol | 4.19 ± 0.16 kcal/mol | 4.6 ± 0.34 kcal/mol
12 | SAGGSLPPGQWIFMIQLEIEPPNGNTWPFNIMVPPDNVEEQAKEIADRLRENGLKVKIEITDVMPVSAGGSA [r2_274_TrROS] | 3.5 ± 0.083 kcal/mol | 3.09 ± 0.13 kcal/mol | 2.22 ± 0.13 kcal/mol
13 | SAGGSAGGSAGMPEVEVEVKIIKFDKEKNVFVIEVTDKKTGKRVTLTIKNGKIELKVEEPSAGGSAGGSAGG [r17_370_TrROS_Hall] | 4.06 ± 0.089 kcal/mol | 3.7 ± 0.19 kcal/mol | 2.85 ± 0.098 kcal/mol
14 | SAAPVRVEVEYDPERGVLRVRLYIPATSPEEARELVERFFAALGAEARITENPETGTFVVEVDIRLPPASAG [r14_424_TrMRF] | 5.15 ± 0.056 kcal/mol | 4.92 ± 0.074 kcal/mol | 4.09 ± 0.09 kcal/mol
15 | SAGGSKKKKPEKPPVVLIKITVEETGKEITIPLEELRNMSAEELAKRIAEELRERYPGLKVRVEIVSAGGSA [r2_392_TrROS_Hall] | 2.28 ± 0.11 kcal/mol | 2.07 ± 0.17 kcal/mol | 1.49 ± 0.071 kcal/mol
16 | SAGGSAGGSAPDIKIEKIGENTYKITLNFEFTFEDGSKVKVKITFTFTVNFPEDDPLLKELFSAGGSAGGSA [r18_215_TrMRF] | 3.213 ± 0.028 kcal/mol | 3.02 ± 0.11 kcal/mol | 2.71 ± 0.061 kcal/mol
17 | SAGGSAGGSAGKTIYAPYSKIPEVIEELKKKGYEIDSIEKVPNGSYKISFKNKPIEINLGSAGGSAGGSAGG [r17_379_TrMRF] | 3.83 ± 0.048 kcal/mol | 3.65 ± 0.088 kcal/mol | 3.24 ± 0.078 kcal/mol
18 | SAGGSAGGSAGGKEITIMMPSPEAIKKLLPPGWKITNIEPIGRDPEDGYPYYMITFKPDSAGGSAGGSAGGS [r10_256_TrROS] | 1.11 ± 0.042 kcal/mol | 1.3 ± 0.057 kcal/mol | 1.43 ± 0.018 kcal/mol
19 | SAGMPDVPPVPRTFRLEIEIEVPAEDPELARELAEEIREEIRRLGAVRTEVEIDPEPGRVRVRVEFVEGSAG [r5_512_TrMRF] | 1.56 ± 0.051 kcal/mol | 1.48 ± 0.043 kcal/mol | 1.36 ± 0.018 kcal/mol
20 | SAGGSAGKKPVEFKVKIMIFNPENGDMYMIEMTITIDPDGQIKIKIKLPDPPRLPPGMVIFIMVYISAGGSA [r15_488_TrROS] | 5.24 ± 0.085 kcal/mol | 5.01 ± 0.16 kcal/mol | 4.08 ± 0.16 kcal/mol
21 | SAGGSASVLEEAIEEAKKLPPGSVVPLTVTVPTDGEPVVYEILITVHPGENTIEVEKKRKFSPERLSAGGSA [r15_724_JUSTAS] | 0.779 ± 0.1 kcal/mol | 0.439 ± 0.095 kcal/mol | -0.411 ± 0.14 kcal/mol

Row | Sequence | folding stability dG unfold [1] | folding stability dG unfold [2] | folding stability dG unfold [3]
22 | SAGGMVTIELREVSEEEALKLAEELPPNTLLIPFPFGNLVLPVRVPDDPEVREKVAEEIRKFLEALPSAGGS [r16_311_TrMRF] | 0.0455 ± 0.19 kcal/mol | 0.67 ± 0.13 kcal/mol | 1.13 ± 0.023 kcal/mol
23 | KKKKKKKKKKKKKEKVKVRIRIRLKVKDKETGEWKEIEVEIEIEMSKEEAEEIAKKLAEKYNFEIVEIEIES [r1_488_TrROS_Hall] | 3.46 ± 0.19 kcal/mol | 3.28 ± 0.21 kcal/mol | 2.95 ± 0.079 kcal/mol
24 | SAGGSAGGSAEPPRYLVIELEVERSPEEIAEELRRRLGIERVEVEYDPETERLRVRVVVRLPSAGGSAGGSA [r18_275_TrROS_Hall] | 3.37 ± 0.047 kcal/mol | 2.88 ± 0.11 kcal/mol | 1.96 ± 0.048 kcal/mol
25 | SAGGSAGGSAGEVVLSPTDKTLTLTSFDPKTGVTYYTVFYPATGTTSTTSTGNLESLIAASAGGSAGGSAGG [r17_300_JUSTAS] | 0.531 ± 0.13 kcal/mol | 0.929 ± 0.084 kcal/mol | 1.25 ± 0.024 kcal/mol
26 | SAGGSAGGSADDEIVAEFTFTVPGTGVKKVKVKVFKDPNSDEYWVRVEGKWLPVSNPEEALESAGGSAGGSA [r18_67_TrMRF] | 2.4 ± 0.066 kcal/mol | 2.1 ± 0.14 kcal/mol | 1.62 ± 0.11 kcal/mol
27 | SRRLITIEITVTLPGNPEVTLSKTLKLPTEDVEEAIEKAKKEFKEEFGIPEDVPVKIEVTVSTSDGDPSLQS [r1_149_JUSTAS] | 1.56 ± 0.049 kcal/mol | 1.96 ± 0.068 kcal/mol | 2.53 ± 0.18 kcal/mol
28 | SAGGSAGGSAGGSMKYITITETTEEEVLVLYYDPETGEPVREEKVLRTVTKTRTLPPDLKSAGGSAGGSAGG [r7_573_JUSTAS] | 0.434 ± 0.19 kcal/mol | 0.189 ± 0.14 kcal/mol | -0.236 ± 0.23 kcal/mol
29 | SAGGMTLEELKEALKKLPPNVKEVKITVVEKNGKLVVVVEVNGKKLVIEFDSEEERKLAEELVKELLSSAGG [r13_287_TrROS_Hall] | 3.13 ± 0.16 kcal/mol | 3.45 ± 0.24 kcal/mol | 3.75 ± 0.32 kcal/mol
30 | SAGGSAGGSAGGSMLVEKKTFKDPKTGKTYIEIVIKDENGNLLSVKILSTEDPEKIEKLLSAGGSAGGSAGG [r7_484_JUSTAS] | 2.55 ± 0.037 kcal/mol | 2.37 ± 0.15 kcal/mol | 2.15 ± 0.12 kcal/mol
31 | SAGGSAGGSAGGMVKIKLKNGKWYEAKVTEIDEDGNVVVELPNGKKFTVPAKDLEIEVLPSAGGSAGGSAGG [r7_823_TrROS_Hall] | 3.7 ± 0.097 kcal/mol | 3.69 ± 0.11 kcal/mol | 3.77 ± 0.29 kcal/mol
32 | SAGGSAMPDLAAAPGVTRVEPYPDGLVEIHLDGSEEARDEIEERLRAAGDFEIYRLPDRDTLLVRASAGGSA [r15_554_TrMRF] | -0.165 ± 0.55 kcal/mol | -0.025 ± 0.29 kcal/mol | -0.00819 ± 0.26 kcal/mol
33 | SAGGSAGGSDVEDIIKKLKIPPGYRMRFPDGKSHKFNNLDDIRNLAEMGMPPDNIDKIQIQPYSAGGSAGGS [r12_430_TrROS] | 0.09 ± 0.28 kcal/mol | 0.0517 ± 0.15 kcal/mol | -0.152 ± 0.22 kcal/mol
34 | SAGGSAGGSAHKITITLPNGNPPEIVVEFETEEEAKEKAEEIIKKLEEEGYPKENLTVTIEKESAGGSAGGS [r12_295_JUSTAS] | 1.76 ± 0.087 kcal/mol | 1.86 ± 0.12 kcal/mol | 1.87 ± 0.076 kcal/mol
35 | SAKEEYYKVRIYFPETNEVVEIEAKSEEEALEALKKLLNEPNIVKIEIEKVEVEEEPEEKEYSEEELKSSAG [r14_747_TrROS_Hall] | 2.39 ± 0.046 kcal/mol | 2.32 ± 0.12 kcal/mol | 2.02 ± 0.04 kcal/mol
36 | SAGGSFEVEVEVERYPEENYYYVKIPIRLPNNGKKIPLDVPVPADDPEPAEKWAKFIAKELAKQGISAGGSA [r2_221_TrROS] | -0.1 ± 0.27 kcal/mol | -0.1 ± 0.23 kcal/mol | -0.0866 ± 0.14 kcal/mol
37 | SAGGSAGGSAMKTYTLEQIEELLKSLPEEEIEEVKIEEKEGKKVIYVKTKDGREIEIVVEPSAGGSAGGSAG [r3_291_TrROS_Hall] | 3.19 ± 0.052 kcal/mol | 2.98 ± 0.13 kcal/mol | 2.86 ± 0.2 kcal/mol
38 | SAGGSAGGSAAPLEARLVSVSRDPAGNRLHAVYVVRDPSTGEQYLVTFSADPTSISVRVERVSAGGSAGGSA [r18_444_TrMRF] | 4.48 ± 0.089 kcal/mol | 3.96 ± 0.071 kcal/mol | 2.69 ± 0.12 kcal/mol
39 | SAGARIVPIKINLKWNPDNGQLEVPIEMYVNNHPVEMEARFDPEDPGKIEFEITYPGNGQEIRASIPLPSAG [r14_178_TrROS] | -0.0473 ± 0.31 kcal/mol | 0.467 ± 0.26 kcal/mol | 0.951 ± 0.098 kcal/mol
40 | SAGGSAGGGMGPASFYIVTVDPNNPNVTKVESLSPSVDISLYRKKPFPIKTFSASNIEKLLKELSAGGSAGG [r6_864_JUSTAS] | 0.791 ± 0.18 kcal/mol | 0.619 ± 0.11 kcal/mol | 0.334 ± 0.12 kcal/mol
41 | SAGGSALPPGQEVEITIMIMVMIYNPENGRMWMVMASVEIEIRVDPKNGKLEIKIKKISISIFPMDSAGGSA [r15_517_TrROS] | 5.8 ± 0.52 kcal/mol | > 6 kcal/mol | 4.23 ± 0.72 kcal/mol
42 | SAGQWVKFTLPIYKMKYEKDKDGKPEIKEMKPIPKFDIEARVDEDGNVRIRFGGNEREFPPGESLEDLISAG [r14_909_TrROS] | 0.482 ± 0.28 kcal/mol | 0.478 ± 0.24 kcal/mol | 0.0407 ± 0.21 kcal/mol
